Laboratory results: patent US20160046678A1 (ZYNGENIA, published 2016)
Ends that are not written are not given here.

Target: T1, Angiopoietin-2 (Ang2) (human, UniProt O15123 19-496, biotin label in Examples 22-24)
T1 construct: also called rhAng2; recombinant Ang2
T1 sequence (looked up): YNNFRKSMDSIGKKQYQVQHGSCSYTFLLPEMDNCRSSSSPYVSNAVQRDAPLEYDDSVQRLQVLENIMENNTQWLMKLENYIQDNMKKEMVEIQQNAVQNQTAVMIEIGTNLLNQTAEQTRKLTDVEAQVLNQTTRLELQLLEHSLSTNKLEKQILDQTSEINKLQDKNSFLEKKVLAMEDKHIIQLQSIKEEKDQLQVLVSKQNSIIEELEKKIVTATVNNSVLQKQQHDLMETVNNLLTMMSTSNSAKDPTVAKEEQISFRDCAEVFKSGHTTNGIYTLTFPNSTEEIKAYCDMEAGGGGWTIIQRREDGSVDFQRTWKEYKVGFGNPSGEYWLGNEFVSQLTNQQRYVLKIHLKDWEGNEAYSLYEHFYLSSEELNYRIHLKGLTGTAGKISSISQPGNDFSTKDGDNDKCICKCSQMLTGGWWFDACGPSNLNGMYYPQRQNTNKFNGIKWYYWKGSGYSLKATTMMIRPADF
Assay: ELISA, MRD-MBP fusions on rhAng2-coated wells; references L17D and Lm32 KtoS MBP fusions

- fold higher affinity: > 10 fold
B1: 2xLm32 MRD-MBP fusion (other)
chain: MGAQTNFMPMDNDELLLYEQFILQQGLEGGSGSTASSGSGSSLGAQTNFMPMDNDELLLY
modifications: also: fused to maltose binding protein, MRD downstream of malE, two copies of Lm32
notes: also called Lm32 dimer; LM-2x-32; not shown: MRD inserted downstream of malE
